Measurements published in publication PMC3324550, “Antibiotic Resistance Is Prevalent in an Isolated Cave Microbiome” (PLoS ONE, 2012).

Tests used:
[1] = tested on: T1, MPH (2′)-II from B. paraconglomeratum (mphE); experiment: pyruvate kinase/lactate dehydrogenase coupled assay, NADH absorbance at […] nm; type: biochemical, Brachybacterium paraconglomeratum
T1 construct: codon-optimised synthetic gene in pET28b (NdeI/HindIII), E. coli BL21(DE3); IMAC and gel filtration

[2] = tested on: CC[C@H]1OC(=O)[C@H](C)[C@@H](O[C@H]2C[C@@](C)(OC)[C@@H](O)[C@H](C)O2)[C@H](C)[C@@H](O[C@@H]2O[C@H](C)C[C@H](N(C)C)[C@H]2O)[C@](C)(OC)C[C@@H](C)C(=O)[C@H](C)[C@@H](O)[C@]1(C)O; experiment: purified protein; type: biochemical, Brachybacterium faecium; details: GTP 200 µM
[3] = tested on: CC[C@H]1OC(=O)[C@H](C)C(=O)[C@H](C)[C@@H](O[C@@H]2O[C@H](C)C[C@H](N(C)C)[C@H]2O)[C@](C)(OC)C[C@@H](C)C(=O)[C@H](C)[C@H]2N(CCCCn3cnc(-c4cccnc4)c3)C(=O)O[C@]12C; experiment: purified protein; type: biochemical, Brachybacterium faecium; details: GTP 200 µM
[4] = tested on: CC[C@H]1OC(=O)[C@H](C)[C@@H](O[C@H]2C[C@@](C)(OC)[C@@H](O)[C@H](C)O2)[C@H](C)[C@@H](O[C@@H]2O[C@H](C)C[C@H](N(C)C)[C@H]2O)[C@](C)(O)C[C@@H](C)CN(C)[C@H](C)[C@@H](O)[C@]1(C)O; experiment: purified protein; type: biochemical, Brachybacterium faecium; details: GTP 200 µM
[5] = tested on: Nc1nc2c(ncn2[C@@H]2O[C@H](COP(=O)(O)OP(=O)(O)OP(=O)(O)O)[C@@H](O)[C@H]2O)c(=O)[nH]1; experiment: purified protein; type: biochemical, Brachybacterium faecium; details: erythromycin 400 µM (table note; methods say 200 µM macrolide)
[6] = tested on: CC[C@H]1OC(=O)[C@H](C)[C@@H](O[C@H]2C[C@@](C)(OC)[C@@H](O)[C@H](C)O2)[C@H](C)[C@@H](O[C@@H]2O[C@H](C)C[C@H](N(C)C)[C@H]2O)[C@](C)(O)C[C@@H](C)/C(=N\OCOCCOC)[C@H](C)[C@@H](O)[C@]1(C)O; experiment: purified protein; type: biochemical, Brachybacterium faecium; details: GTP 200 µM
[7] = tested on: CC[C@H]1OC(=O)[C@H](C)[C@@H](O[C@H]2C[C@@](C)(OC)[C@@H](O)[C@H](C)O2)[C@H](C)[C@@H](O[C@@H]2O[C@H](C)C[C@H](N(C)C)[C@H]2O)[C@](C)(O)C[C@@H](C)C(=O)[C@H](C)[C@@H](O)[C@]1(C)O; experiment: purified protein; type: biochemical, Brachybacterium faecium; details: GTP 200 µM
[8] = target: T1, MPH (2′)-II from B. paraconglomeratum (mphE); experiment: pyruvate kinase/lactate dehydrogenase coupled assay, NADH absorbance at […] nm; type: biochemical, Brachybacterium paraconglomeratum; details: substrate inhibition constant (substrate-inhibition fit); GTP 200 µM

Question: For `Nc1nc2c(ncn2[C@@H]2O[C@H](COP(=O)(O)OP(=O)(O)OP(=O)(O)O)[C@@H](O)[C@H]2O)c(=O)[nH]1` [GTP], which Km ([1]; erythromycin 400 µM (table note; methods say 200 µM macrolide)) is on record?
Answer: 10.2 ± 0.53 µM

Question: For “MPH (2′)-II from B. faecium DSM 4810 (Brachybacterium faecium DSM 4810)”, which Km [2] is on record?
Answer: 42.0 ± 6.26 µM

Question: And the kcat [2]?
Answer: 0.286 s⁻¹

Question: And the kcat/Km [2]?
Answer: 6810 M⁻¹ s⁻¹

Question: What about the Km [3] of the same compound?
Answer: 23.9 ± 4.22 µM

Question: What about the kcat [3] of the same compound?
Answer: 0.168 s⁻¹

Question: What about the kcat/Km [3] of the same compound?
Answer: 7050 M⁻¹ s⁻¹

Question: And the Km [4]?
Answer: 60.6 ± 8.86 µM

Question: What about the kcat [4] of the same compound?
Answer: 0.312 s⁻¹

Question: And the kcat/Km [4]?
Answer: 5180 M⁻¹ s⁻¹

Question: And the Km [5]?
Answer: 16.0 ± 1.3 µM

Question: And the kcat [5]?
Answer: 0.203 s⁻¹

Question: What about the kcat/Km [5] of the same compound?
Answer: 12700 M⁻¹ s⁻¹

Question: And the Km [6]?
Answer: 19.3 ± 2.60 µM

Question: What about the kcat [6] of the same compound?
Answer: 0.262 s⁻¹

Question: And the kcat/Km [6]?
Answer: 13600 M⁻¹ s⁻¹

Question: And the Km [7]?
Answer: 38.2 ± 6.24 µM

Question: What about the kcat [7] of the same compound?
Answer: 0.192 s⁻¹

Question: What about the kcat/Km [7] of the same compound?
Answer: 5030 M⁻¹ s⁻¹

Question: With `CC[C@H]1OC(=O)[C@H](C)[C@@H](O[C@H]2C[C@@](C)(OC)[C@@H](O)[C@H](C)O2)[C@H](C)[C@@H](O[C@@H]2O[C@H](C)C[C@H](N(C)C)[C@H]2O)[C@](C)(O)C[C@@H](C)C(=O)[C@H](C)[C@@H](O)[C@]1(C)O` [Erythromycin] as the compound, how does the Km ([1]; GTP 200 µM) read?
Answer: 43.8 ± 11.3 µM

Question: How did the Km ([1]; GTP 200 µM, substrate-inhibition fit) turn out when `CC[C@H]1OC(=O)[C@H](C)C(=O)[C@H](C)[C@@H](O[C@@H]2O[C@H](C)C[C@H](N(C)C)[C@H]2O)[C@](C)(OC)C[C@@H](C)C(=O)[C@H](C)[C@H]2N(CCCCn3cnc(-c4cccnc4)c3)C(=O)O[C@]12C` [Telithromycin] was run?
Answer: 12.2 ± 5 µM

Question: And the “Ki” value [8]?
Answer: 600 ± 285 µM

Question: For `CC[C@H]1OC(=O)[C@H](C)[C@@H](O[C@H]2C[C@@](C)(OC)[C@@H](O)[C@H](C)O2)[C@H](C)[C@@H](O[C@@H]2O[C@H](C)C[C@H](N(C)C)[C@H]2O)[C@](C)(OC)C[C@@H](C)C(=O)[C@H](C)[C@@H](O)[C@]1(C)O` [Clarithromycin], which Km ([1]; GTP 200 µM) is on record?
Answer: 21.9 ± 5.45 µM

Question: With `CC[C@H]1OC(=O)[C@H](C)[C@@H](O[C@H]2C[C@@](C)(OC)[C@@H](O)[C@H](C)O2)[C@H](C)[C@@H](O[C@@H]2O[C@H](C)C[C@H](N(C)C)[C@H]2O)[C@](C)(O)C[C@@H](C)CN(C)[C@H](C)[C@@H](O)[C@]1(C)O` [Azithromycin] as the compound, how does the Km ([1]; GTP 200 µM) read?
Answer: 54 ± 7.59 µM

Question: With `CC[C@H]1OC(=O)[C@H](C)[C@@H](O[C@H]2C[C@@](C)(OC)[C@@H](O)[C@H](C)O2)[C@H](C)[C@@H](O[C@@H]2O[C@H](C)C[C@H](N(C)C)[C@H]2O)[C@](C)(O)C[C@@H](C)/C(=N\OCOCCOC)[C@H](C)[C@@H](O)[C@]1(C)O` [Roxithromycin] as the compound, how does the Km ([1]; GTP 200 µM) read?
Answer: 59 ± 10.9 µM
